Source: doi:10.1101/2024.09.23.614597

Target: PelC lipoprotein (P. aeruginosa)
Test: cryo-EM structure

PelC lipoprotein (natural protein) showed a stoichiometry N of 12 subunits.
